# In article PMC4691284 (Developmental cell, 2015):
# B1: Gas7 F-BAR domain (domain or fragment, human, UniProt O60861 196-456, looked up)
# chain: TEWSYCDYFWADKKDPQGNGTVAGFELLLQKQLKGKQMQKEMSEFIRERIKIEEDYAKNLAKLSQNSLASQEEGSLGEAWAQVKKSLADEAEVHLKFSAKLHSEVEKPLMNFRENFKKDMKKCDHHIADLRKQLASRYASVEKARKALTERQRDLEMKTQQLEIKLSNKTEEDIKKARRKSTQAGDDLMRCVDLYNQAQSKWFEEMVTTTLELERLEVERVEMIRQHLCQYTQLRHETDMFNQSTVEPVDQLLRKVDPAKD
# B2: FCHSD2 F-BAR domain (domain or fragment, human, UniProt O94868 8-282, looked up)
# chain: VKVTQELKNIQVEQMTKLQAKHQAECDLLEDMRTFSQKKAAIEREYAQGMQKLASQYLKRDWPGVKADDRNDYRSMYPVWKSFLEGTMQVAQSRMNICENYKNFISEPARTVRSLKEQQLKRCVDQLTKIQTELQETVKDLAKGKKKYFETEQMAHAVREKADIEAKSKLSLFQSRISLQKASVKLKARRSECNSKATHARNDYLLTLAAANAHQDRYYQTDLVNIMKALDGNVYDHLKDYLIAFSRTELETCQAVQNTFQFLLENSSKVVRDYN
# B3: FCHSD1 F-BAR domain (domain or fragment, human, UniProt Q86WN1 12-282, looked up)
# chain: QEVKLRFLEQLSILQTWQQREADLLEDIRSYSKQRAAIEREYGQALQKLAGPFLKREGHRSGEMDSRGRTVFGAWRCLLDATVAGGQTRLQASDRYRDLAGGTGRSAKEQVLRKGTENLQRAQAEVLQSVRELSRSRKLYGQRERVWALAQEKAADVQARLNRSDHGIFHSRTSLQKLSTKLSAQSAQYSQQLQAARNEYLLNLVATNAHLDHYYQEELPALLKALVSELSEHLRDPLTSLSHTELEAAEVILEHAHRGEQTTSQVSWEQD
# Molecular target: the molecule itself
# Experiment: AUC
row,Protein,stoichiometry N [dimers]
1,B1,> 2
2,B2,> 2
3,B3,> 2
